Literature values in paper PMC3985900.

What was measured:
[1] = target: Glu85 (UniProt position 98, WARYAEWLFTT); test: UV-vis; conditions: Resting state, with retinal bound
[2] = target: Asp85 (UniProt position 98, WARYADWLFTT); test: UV-vis; conditions: Resting state, with retinal bound

In the case of “Bacteriorhodopsin D85E (Halobacterium salinarum; D85E)”, the pKa [1] is listed as 9.4.
In the case of “Bacteriorhodopsin (native, purple membrane) (Halobacterium salinarum)”, the pKa [2] is listed as “∼3”.
